From patent publication US20130195871A1 (AbbVie / Abbott, published 2013)
Each block holds one binder with its values, some of them ahead of it.

Experiments:
[1] = molecular target: T1, Recombinant Human MSP Receptor ECD-His tag (human, UniProt Q04912 25-957); assay: SPR (Biacore), C-terminal VD;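 also: surface plasmon resonance with DVD-Ig proteins captured on an anti-IgG chip and recombinant antigen flowed over in HBS-EP buffer, Langmuir global fit, KD taken as koff/kon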
T1 construct: extracellular domain; bought reagent; also called RON
Experimental: The BIACORE assay (Biacore, Inc, Piscataway, N.J.) determined the affinity of antibodies or DVD-Ig proteins with kinetic measurements of on-rate and off-rate constants. Binding of antibodies or DVD-Ig proteins to a target antigen (for example, a purified recombinant target antigen) was determined by surface plasmon resonance-based measurements with a Biacore® 1000 or 3000 instrument (Biacore AB, Uppsala. Sweden) using running HBS-EP (10 mM HEPES [pH 7.4], 150 mM NaCl, 3 mM EDTA, and 0.005% surfactant P20) at 25° C. […] For example, approximately 5000 RU of goat anti-mouse IgG, (Fcγ), fragment specific polyclonal antibody (Pierce Biotechnology Inc, Rockford, Ill.) diluted in 10 mM sodium acetate (pH 4.5) was directly immobilized across a CM5 research grade biosensor chip using a standard amine coupling kit according to manufacturer's instructions and procedures at 25 μg/ml. Unreacted moieties on the biosensor surface were blocked with ethanolamine. Modified carboxymethyl dextran surface in flowcell 2 and 4 was used as a reaction surface. Unmodified carboxymethyl dextran without goat anti-mouse IgG in flow cell 1 and 3 was used as the reference surface. For kinetic analysis, rate equations derived from the 1:1 Langmuir binding model were fitted simultaneously to association and dissociation phases of all eight injections (using global fit analysis) with the use of Biaevaluation 4.0.1 software. Purified antibodies or DVD-Ig proteins were diluted in HEPES-buffered saline for capture across goat anti-mouse IgG specific reaction surfaces. Antibodies or DVD-Ig proteins to be captured as a ligand (25 μg/ml) were injected over reaction matrices at a flow rate of 5 μl/minute. The association and dissociation rate constants, kₒₙ (M⁻¹s⁻¹) and koff (s⁻¹) were determined under a continuous flow rate of 25 μl/minute. Rate constants were derived by making kinetic binding measurements at different antigen concentrations ranging from 10-200 nM. The equilibrium dissociation constant (M) of the reaction between antibodies or DVD-Ig proteins and the target antigen was then calculated from the kinetic rate constants by the following formula: KD=koff/kₒₙ. Binding was recorded as a function of time and kinetic rate constants were calculated.

EGFR on the cell surface = molecular target: T2, EGFR on the cell surface (human, UniProt P00533 25-1210); assay: flow cytometry on cells, 2 ug/mL, N-terminal VD;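 also: cells stained for 30 to 60 min on ice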
T2 construct: whole, on cells
Experimental: Stable cell lines overexpressing a cell-surface antigen of interest or human tumor cell lines were harvested from tissue culture flasks and resuspended in phosphate buffered saline (PBS) containing 5% fetal bovine serum (PBS/FBS). Prior to staining, human tumor cells were incubated on ice with (100 μl) human IgG at 5 μg/ml in PBS/FCS. 1-5×10⁵ cells were incubated with antibody or DVD-Ig (2 μg/mL) in PBS/FBS for 30-60 minutes on ice. […] After 30 minutes incubation on ice, cells were washed twice and resuspended in PBS/FBS. Fluorescence was measured using a Becton Dickinson FACSCalibur (Becton Dickinson, San Jose, Calif.).
The geometric mean is the n root of the multiplication product of n fluorescent signals (a1×a2×a3 . . . an). With log-transformed data the geometric mean is used to normalize the weighting of the data distribution.

Recombinant Human IGF1R = molecular target: T3, Recombinant Human IGF1R (human, UniProt P08069 31-932); assay: SPR (Biacore), N-terminal VD;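 also: capture of antibodies or DVD-Ig proteins on an anti-mouse IgG chip surface, recombinant antigen injected at 10–200 nM in HBS-EP running buffer at 25 °C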
T3 construct: bought reagent

[2] = molecular target: T4, Recombinant Human ErbB3/FC Chimera-His tag (human, UniProt P21860 20-643); assay: SPR (Biacore), N-terminal VD;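 also: capture of antibodies or DVD-Ig proteins on an anti-mouse IgG chip surface, recombinant antigen injected at 10–200 nM in HBS-EP running buffer at 25 °C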
T4 construct: bought reagent

B2: DVD2304 (bispecific antibody)
VH: EVQLVESGGGLVQPGGSLRLSCAASGFSLTNYGVHWVRQAPGKGLEWLGVGWSGGNTDYNTPFTSRLTINKDNSKNTVYLQMNSLRAEDTAVYYCARALTWYDYEFAYWGQGTLVTVSSASTKGPEVQLVQSGAEVKKPGSSVKVSCKASGGTFSSYAISWVRQAPGQGLEWMGGIIPIFGTANYAQKFQGRVTITADKSTSTAYMELSSLRSEDTAVYYCARAPLRFLEWSTQDHYYYYYMDVWGKGTTVTVSS
VL: DILLTQSPGTLSLSPGERATLSCRASQSIYTNIHWYQQKPGQAPRLLIKYASESISGIPDRFSGSGSGTDFTLTISRLEPEDFAVYYCQQNLNWPTTFGQGTKLEIKRTVAAPSSELTQDPAVSVALGQTVRITCQGDSLRSYYATWYQQKPGQAPILVIYGENKRPSGIPDRFSGSSSGNTASLTITGAQAEDEADYYCKSRDGSGQHLVFGGGTKLTVL
notes: DVD-Ig, outer AB400 / inner AB075
GEO MEAN (EGFR on the cell surface): 512

B3: DVD2325 (bispecific antibody)
VH: EVQLVQSGGGLVKPGGSLRLSCAASGFTFSSFAMHWVRQAPGKGLEWISVIDTRGATYYADSVKGRFTISRDNAKNSLYLQMNSLRAEDTAVYYCARLGNFYYGMDVWGQGTTVTVSSASTKGPEVQLVQSGGGLVKPGGSLRLSCAASGFTFSSYAMHWVRQAPGKGLEWVAVISYDGSNKYYADSVKGRFTISRDNSKNTLYLQMNSLRAEDTAVYYCARFSGWPNNYYYYGMDVWGQGTTVTVSS
VL: EIVLTQSPGTLSVSPGERATLSCRASQSIGSSLHWYQQKPGQAPRLLIKYASQSLSGIPDRFSGSGSGTDFTLTISRLEPEDFAVYYCHQSSRLPHTFGQGTKVEIKRTVAAPDVVMTQSPLSLPVTPGEPASISCRSSQSLLHSNGFNYVDWYLQKPGQSPHLLIYFGSYRASGVPDRFSGSGSGTDFTLKISRVEAEDVGVYYCMQALQTPPWTFGQGTKVEIR
notes: DVD-Ig, outer AB077 / inner AB005
Kd (Recombinant Human IGF1R): 0.11 nM | koff (Recombinant Human IGF1R): 6.6e-06 s⁻¹ | kon (Recombinant Human IGF1R): 60000 M⁻¹ s⁻¹ | binding result [1]: no binding (tested: 10-200 nM)

B4: DVD2327 (bispecific antibody)
VH: EVQLLESGGGLVQPGGSLRLSCTASGFTFSSYAMNWVRQAPGKGLEWVSAISGSGGTTFYADSVKGRFTISRDNSRTTLYLQMNSLRAEDTAVYYCAKDLGWSDSYYYYYGMDVWGQGTTVTVSSASTKGPEVQLVQSGGGLVKPGGSLRLSCAASGFTFSSYAMHWVRQAPGKGLEWVAVISYDGSNKYYADSVKGRFTISRDNSKNTLYLQMNSLRAEDTAVYYCARFSGWPNNYYYYGMDVWGQGTTVTVSS
VL: DIQMTQFPSSLSASVGDRVTITCRASQGIRNDLGWYQQKPGKAPKRLIYAASRLHRGVPSRFSGSGSGTEFTLTISSLQPEDFATYYCLQHNSYPCSFGQGTKLEIKRTVAAPDVVMTQSPLSLPVTPGEPASISCRSSQSLLHSNGFNYVDWYLQKPGQSPHLLIYFGSYRASGVPDRFSGSGSGTDFTLKISRVEAEDVGVYYCMQALQTPPWTFGQGTKVEIR
notes: DVD-Ig, outer AB011 / inner AB005
Kd (Recombinant Human IGF1R): 1.5 nM | koff (Recombinant Human IGF1R): 7e-05 s⁻¹ | kon (Recombinant Human IGF1R): 46000 M⁻¹ s⁻¹ | binding result [1]: no binding (tested: 10-200 nM)

B5: DVD2298 (bispecific antibody)
VH: EVQLVESGGGLVQPGGSLRLSCAASGFSLTNYGVHWVRQAPGKGLEWLGVGWSGGNTDYNTPFTSRLTINKDNSKNTVYLQMNSLRAEDTAVYYCARALTWYDYEFAYWGQGTLVTVSSASTKGPEVQLVQSGGGLVKPGGSLRLSCAASGFTFSSYAMHWVRQAPGKGLEWVAVISYDGSNKYYADSVKGRFTISRDNSKNTLYLQMNSLRAEDTAVYYCARFSGWPNNYYYYGMDVWGQGTTVTVSS
VL: DILLTQSPGTLSLSPGERATLSCRASQSIYTNIHWYQQKPGQAPRLLIKYASESISGIPDRFSGSGSGTDFTLTISRLEPEDFAVYYCQQNLNWPTTFGQGTKLEIKRTVAAPDVVMTQSPLSLPVTPGEPASISCRSSQSLLHSNGFNYVDWYLQKPGQSPHLLIYFGSYRASGVPDRFSGSGSGTDFTLKISRVEAEDVGVYYCMQALQTPPWTFGQGTKVEIR
notes: DVD-Ig, outer AB400 / inner AB005
GEO MEAN (EGFR on the cell surface): 400

B6: DVD2302 (bispecific antibody)
VH: EVQLVESGGGLVQPGGSLRLSCAASGFSLTNYGVHWVRQAPGKGLEWLGVGWSGGNTDYNTPFTSRLTINKDNSKNTVYLQMNSLRAEDTAVYYCARALTWYDYEFAYWGQGTLVTVSSASTKGPEVQLVESGGGLVQPGGSLRLSCAASGFTFTDYTMDWVRQAPGKGLEWVADVNPNSGGSIYNQRFKGRFTLSVDRSKNTLYLQMNSLRAEDTAVYYCARNLGPSFYFDYWGQGTLVTVSS
VL: DILLTQSPGTLSLSPGERATLSCRASQSIYTNIHWYQQKPGQAPRLLIKYASESISGIPDRFSGSGSGTDFTLTISRLEPEDFAVYYCQQNLNWPTTFGQGTKLEIKRTVAAPDIQMTQSPSSLSASVGDRVTITCKASQDVSIGVAWYQQKPGKAPKLLIYSASYRYTGVPSRFSGSGSGTDFTLTISSLQPEDFATYYCQQYYIYPYTFGQGTKVEIK
notes: DVD-Ig, outer AB400 / inner AB080
GEO MEAN (EGFR on the cell surface): 563

B9: DVD2306 (bispecific antibody)
VH: EVQLVESGGGLVQPGGSLRLSCAASGFSLTNYGVHWVRQAPGKGLEWLGVGWSGGNTDYNTPFTSRLTINKDNSKNTVYLQMNSLRAEDTAVYYCARALTWYDYEFAYWGQGTLVTVSSASTKGPEVQLVQSGGGLVKPGGSLRLSCAASGFTFSSFAMHWVRQAPGKGLEWISVIDTRGATYYADSVKGRFTISRDNAKNSLYLQMNSLRAEDTAVYYCARLGNFYYGMDVWGQGTTVTVSS
VL: DILLTQSPGTLSLSPGERATLSCRASQSIYTNIHWYQQKPGQAPRLLIKYASESISGIPDRFSGSGSGTDFTLTISRLEPEDFAVYYCQQNLNWPTTFGQGTKLEIKRTVAAPEIVLTQSPGTLSVSPGERATLSCRASQSIGSSLHWYQQKPGQAPRLLIKYASQSLSGIPDRFSGSGSGTDFTLTISRLEPEDFAVYYCHQSSRLPHTFGQGTKVEIK
notes: DVD-Ig, outer AB400 / inner AB077
GEO MEAN (EGFR on the cell surface): 546

B10: DVD2319 (bispecific antibody)
VH: EVQLVESGGGLVQPGGSLRLSCAASGFTFSIYSMNWVRQAPGKGLEWVSYISSSSSTIYYADSVKGRFTISRDNAKNSLYLQMNSLRDEDTAVYYCARDRGDFDAFDIWGQGTMVTVSSASTKGPEVQLVQSGGGLVKPGGSLRLSCAASGFTFSSYAMHWVRQAPGKGLEWVAVISYDGSNKYYADSVKGRFTISRDNSKNTLYLQMNSLRAEDTAVYYCARFSGWPNNYYYYGMDVWGQGTTVTVSS
VL: DIQMTQSPSSLSASVGDRVTITCQASQDITNYLNWYQQKPGKAPKLLIYDASNLETGVPSRFSGSGSGTDFTFTISSLQPEDIATYNCQQCENFPITFGQGTRLEIKRTVAAPDVVMTQSPLSLPVTPGEPASISCRSSQSLLHSNGFNYVDWYLQKPGQSPHLLIYFGSYRASGVPDRFSGSGSGTDFTLKISRVEAEDVGVYYCMQALQTPPWTFGQGTKVEIR
notes: DVD-Ig, outer AB063 / inner AB005
Kd [2]: 5.4 nM | koff [2]: 0.0017 s⁻¹ | kon [2]: 310000 M⁻¹ s⁻¹ | binding result [1]: no binding (tested: 10-200 nM)

Now from value to binder:

Kd [1]: 39 nM | koff [1]: 0.0051 s⁻¹ | kon [1]: 130000 M⁻¹ s⁻¹
B1: DVD2335 (bispecific antibody)
VH: QVQLQQWGAGLLKPSETLSLTCAVYGGSFSGYYWSWIRQPPGKGLEWIGEINHSGSTNYNPSLKSRVTISVETSKNQFSLKLSSVTAADTAVYYCARDKWTWYFDLWGRGTLVTVSSASTKGPQVQLQESGPGLVKPSEILSLTCTVSGGSISSHYWSWVRQPPGKGLEWIGYIYYSGSTNYNPSLKSRVTISVDTSKNQFSLNLSSVTAADTAVYYCARIPNYYDRSGYYPGYWYFDLWGRGTLVTVSS
VL: DIEMTQSPDSLAVSLGERATINCRSSQSVLYSSSNRNYLAWYQQNPGQPPKLLIYWASTRESGVPDRFSGSGSGTDFTLTISSLQAEDVAVYYCQQYYSTPRTFGQGTKVEIKRTVAAPQAVLTQPSSLSAPPGASASLTCTLRSGFNVDSYRISWYQQKPGSPPQYLLRYKSDSDKQQGSGVPSRFSGSKDASANAGILLISGLQSEDEADYYCMIWHSSAWVFGGGTKLTVL
notes: DVD-Ig, outer AB062 / inner AB034

binding result [1]: no binding (tested: 10-200 nM)
B7: DVD2317 (bispecific antibody)
VH: EVQLVESGGGLVQPGGSLRLSCAASGFTFTDYTMDWVRQAPGKGLEWVADVNPNSGGSIYNQRFKGRFTLSVDRSKNTLYLQMNSLRAEDTAVYYCARNLGPSFYFDYWGQGTLVTVSSASTKGPEVQLVQSGGGLVKPGGSLRLSCAASGFTFSSYAMHWVRQAPGKGLEWVAVISYDGSNKYYADSVKGRFTISRDNSKNTLYLQMNSLRAEDTAVYYCARFSGWPNNYYYYGMDVWGQGTTVTVSS
VL: DIQMTQSPSSLSASVGDRVTITCKASQDVSIGVAWYQQKPGKAPKLLIYSASYRYTGVPSRFSGSGSGTDFTLTISSLQPEDFATYYCQQYYIYPYTFGQGTKVEIKRTVAAPDVVMTQSPLSLPVTPGEPASISCRSSQSLLHSNGFNYVDWYLQKPGQSPHLLIYFGSYRASGVPDRFSGSGSGTDFTLKISRVEAEDVGVYYCMQALQTPPWTFGQGTKVEIR
notes: DVD-Ig, outer AB080 / inner AB005

GEO MEAN (EGFR on the cell surface): 24.1
B8: DVD2346 (bispecific antibody)
VH: QVQLQESGPGLVKPSQTLSLTCTVSGYSISSDFAWNWIRQPPGKGLEWMGYISYSGNTRYQPSLKSRITISRDTSKNQFFLKLNSVTAADTATYYCVTAGRGFPYWGQGTLVTVSSASTKGPEVQLVQSGGGLVKPGGSLRLSCAASGFTFSSFAMHWVRQAPGKGLEWISVIDTRGATYYADSVKGRFTISRDNAKNSLYLQMNSLRAEDTAVYYCARLGNFYYGMDVWGQGTTVTVSS
VL: DIQMTQSPSSMSVSVGDRVTITCHSSQDINSNIGWLQQKPGKSFKGLIYHGTNLDDGVPSRFSGSGSGTDYTLTISSLQPEDFATYYCVQYAQFPWTFGGGTKLEIKRTVAAPEIVLTQSPGTLSVSPGERATLSCRASQSIGSSLHWYQQKPGQAPRLLIKYASQSLSGIPDRFSGSGSGTDFTLTISRLEPEDFAVYYCHQSSRLPHTFGQGTKVEIK

GEO MEAN (EGFR on the cell surface): 44.8
B11: DVD2342 (bispecific antibody)
VH: QVQLQESGPGLVKPSQTLSLTCTVSGYSISSDFAWNWIRQPPGKGLEWMGYISYSGNTRYQPSLKSRITISRDTSKNQFFLKLNSVTAADTATYYCVTAGRGFPYWGQGTLVTVSSASTKGPEVQLVESGGGLVQPGGSLRLSCAASGFTFTDYTMDWVRQAPGKGLEWVADVNPNSGGSIYNQRFKGRFTLSVDRSKNTLYLQMNSLRAEDTAVYYCARNLGPSFYFDYWGQGTLVTVSS
VL: DIQMTQSPSSMSVSVGDRVTITCHSSQDINSNIGWLQQKPGKSFKGLIYHGTNLDDGVPSRFSGSGSGTDYTLTISSLQPEDFATYYCVQYAQFPWTFGGGTKLEIKRTVAAPDIQMTQSPSSLSASVGDRVTITCKASQDVSIGVAWYQQKPGKAPKLLIYSASYRYTGVPSRFSGSGSGTDFTLTISSLQPEDFATYYCQQYYIYPYTFGQGTKVEIK
